Reference: article PMC8887749, “The interaction of dengue virus capsid protein with negatively charged interfaces drives the in vitro assembly of nucleocapsid-like particles”

Columns and labels:
[1] = target: Dengue virus capsid (C) protein, recombinant DENVC (dengue virus serotype 2) (UniProt P29990); test: SAXS
[2] = target: DENV capsid protein (DENVC) (Dengue virus serotype 2, UniProt P29990 1-100); test: fluorescence anisotropy; FITC-DENVC 50 nM; 1:1 DENVC:oligo stoichiometry; affinity stated only as nanomolar range; 55 mM NaH2PO4, 200 mM NaCl, 5 mM EDTA, pH 7.4, 25 C; conditions: protein: recombinant; chain copies: 2; single strand
DENV capsid protein (DENVC), sequence (P29990 1-100): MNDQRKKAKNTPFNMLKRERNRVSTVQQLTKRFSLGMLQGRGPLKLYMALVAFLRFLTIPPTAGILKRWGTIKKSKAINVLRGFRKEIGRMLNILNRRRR

Dengue virus capsid (C) protein, recombinant DENVC, sequence (P29990 1-100): as above

Dengue virus capsid (C) protein, recombinant DENVC (from UniProt P29990 1-100) (natural protein)
stoichiometry N [1]: 2

GGGGG (ssDNA) [5-mer ssDNA]
binding result [2]: binds

TCCATGGTAGACAGAGGATGGGGGA (ssDNA) [25-mer ssDNA]
binding result [2]: binds
